Test results: the supplement of paper PMC10724198
± gives the standard deviation of the averaged measurements.

Test system: Saccharomyces cerevisiae
Experiment: protein stability index of tFT-peptide fusion (C-terminal peptide) (PSI (0-1 scale)); higher = more stable (slower turnover)
Conditions: temperature: 30 C
Description: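 MPS profiling in S. cerevisiae of the yeast C-terminome library: the last 12 aa of each annotated ORF are fused to the C-terminus of a sfGFP-mCherry timer, after a GGGS linker. Cells are FACS-sorted into 8 mCherry/sfGFP bins and deep-sequenced. PSI runs from 0 (unstable) to 1 (stable); wild type and das1Δ backgrounds, two technical replicates each.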

[1] = genetic background: das1 deletion

| Sequence | protein stability index [1] | protein stability index (genetic background: wild type) |
| --- | --- | --- |
| AKCGEWTPELSS [CPR2 C-terminal 12 aa] | 0.71451 ± 0.00067 | 0.731 ± 0.014 |
| FDDDLTAQLYYP [TDA8 C-terminal 12 aa] | 0.7291 ± 0.0033 | 0.744 ± 0.043 |
| TAPLIQRKNKKN [RPN8 C-terminal 12 aa] | 0.741 ± 0.037 | 0.355 ± 0.022 |
| KYRRQVRYTQRT [YGL052W C-terminal 12 aa] | 0.708 ± 0.0075 | 0.698 ± 0.013 |
| AWDKFKLQNDIN [SWA2 C-terminal 12 aa] | 0.736 ± 0.015 | 0.698 ± 0.03 |
| TKWWLHYYRKLR [SBE2 C-terminal 12 aa] | 0.7418 ± 0.005 | 0.701 ± 0.023 |
| HLYFQNPPPAMC [HOT13 C-terminal 12 aa] | 0.72 ± 0.021 | 0.728 ± 0.031 |
| LRSCDLKRKSKK [YLR302C C-terminal 12 aa] | 0.678 ± 0.037 | 0.68 ± 0.028 |
| KALQKAMGSVQF [YEL1 C-terminal 12 aa] | 0.702 ± 0.018 | 0.687 ± 0.03 |
| KARIVVAKSGEL [CPR1 C-terminal 12 aa] | 0.686 ± 0.018 | 0.645 ± 0.015 |
| SSSGTSSSHLEL [APL6 C-terminal 12 aa] | 0.702 ± 0.0062 | 0.672 ± 0.028 |
| ACDNSGLIGIFQ [VPS15 C-terminal 12 aa] | 0.723 ± 0.02 | 0.681 ± 0.069 |
| PSSKAPSPGVNT [TEM1 C-terminal 12 aa] | 0.677 ± 0.017 | 0.64 ± 0.026 |
| KHCPYVFIPYVF [ERG4 C-terminal 12 aa] | 0.5262 ± 0.00096 | 0.273 ± 0.0033 |
| LVKHTYKRSSSS [VBA1 C-terminal 12 aa] | 0.705 ± 0.029 | 0.656 ± 0.019 |
| GLFPSNYVSLGN [ABP1 C-terminal 12 aa] | 0.689 ± 0.0081 | 0.721 ± 0.01 |
| NSGSAATDSPFN [STS1 C-terminal 12 aa] | 0.727 ± 0.013 | 0.674 ± 0.034 |
| YSDTIWNVEPVT [GPH1 C-terminal 12 aa] | 0.729 ± 0.015 | 0.73 ± 0.018 |
| DVHDDVESDDEI [ALF1 C-terminal 12 aa] | 0.6961 ± 0.0065 | 0.7005 ± 0.0059 |
| AGIRKRDWDSTQ [RFM1 C-terminal 12 aa] | 0.717 ± 0.02 | 0.691 ± 0.055 |
| QDRSCSWLKLLL [YLR171W C-terminal 12 aa] | 0.685 ± 0.021 | 0.704 ± 0.021 |

| Sequence | protein stability index [1] | protein stability index (genetic background: wild type) |
| --- | --- | --- |
| GLSLSFSKKLDL [DSN1 C-terminal 12 aa] | 0.685 ± 0.023 | 0.671 ± 0.026 |
| PLHFQLIWLPIF [YML099W-A C-terminal 12 aa] | 0.5232 ± 0.00075 | 0.505 ± 0.012 |
| AGEKTVAELMEN [PYP1 C-terminal 12 aa] | 0.679 ± 0.025 | 0.687 ± 0.022 |
| YDLEAGENKFNF [URA7 C-terminal 12 aa] | 0.7022 ± 0.0022 | 0.703 ± 0.0099 |
| HLTKLCIFPGLP [YLR282C C-terminal 12 aa] | 0.68857 ± 5.1e-05 | 0.70209 ± 0.00069 |
| NYGQYSSFWSLL [YOR055W C-terminal 12 aa] | 0.765 ± 0.019 | 0.754 ± 0.017 |
| SGETSDIIFRNY [ADK2 C-terminal 12 aa] | 0.74 ± 0.023 | 0.786 ± 0.012 |
| IGIGTHDLHFGS [YHR052W-A C-terminal 12 aa] | 0.728 ± 0.033 | 0.7123 ± 0.0016 |
| LSKKTSGTHTTH [YBR182C-A C-terminal 12 aa] | 0.681 ± 0.015 | 0.6949 ± 0.005 |
| PNILLAFSYTAW [YNL170W C-terminal 12 aa] | 0.532 ± 0.017 | 0.5663 ± 0.0014 |
| DKLAKLLSLDIH [MSH3 C-terminal 12 aa] | 0.7167 ± 0.0065 | 0.708 ± 0.025 |
| IQINKGDNIFKN [YTM1 C-terminal 12 aa] | 0.688 ± 0.026 | 0.732 ± 0.025 |
| NILVIVYELLLG [YOS1 C-terminal 12 aa] | 0.215 ± 0.023 | 0.203 ± 0.013 |
| LVSQRITGPGVF [ASI2 C-terminal 12 aa] | 0.687 ± 0.0099 | 0.681 ± 0.0099 |
| GKTTYSEVWAGY [VVS1 C-terminal 12 aa] | 0.746 ± 0.04 | 0.741 ± 0.013 |
| KEVPLDFDPDRN [ANP1 C-terminal 12 aa] | 0.683 ± 0.037 | 0.688 ± 0.022 |
| SEVKGYSKLNIV [ASI3 C-terminal 12 aa] | 0.695 ± 0.026 | 0.668 ± 0.035 |
| DEQPTLSQSKTK [DAD1 C-terminal 12 aa] | 0.708 ± 0.012 | 0.714 ± 0.076 |
| GIDVHYVFRTYH [CIN10 C-terminal 12 aa] | 0.704 ± 0.012 | 0.6311 ± 0.0031 |
| DQLLALYEDGLL [AHC2 C-terminal 12 aa] | 0.7371 ± 0.0043 | 0.72 ± 0.043 |
